Test results as given in article PMC6746776, “TA*p63 and GTAp63 achieve tighter transcriptional regulation in quality control by converting an inhibitory element into an additional transactivation domain” (Cell Death & Disease, 2019).
Where “and” joins values, the source holds several entries; their conditions need not be identical. Equal entries are not always repeated. Values belong to the molecule of their own block, whether it stands above or below them. Residues, ends and D or L forms follow the SMILES beside them.

How the values were obtained:
[1] = tested on: TAp63α; test: BN-PAGE oligomeric state of TAp63α upon Dox treatment; details: H1299 stably expressing; pre-incubated with inhibitor 5, 25, 50 µM for 1 h, then 10 µM Dox 6 h; BN-PAGE
Method: (§1) As a control, we used the S582/S583A mutants, which remove the Chk2 priming site preventing tetramerization[13].
(§2) Three hundred nanogram expression vector carrying the p63α gene were transiently transfected in U2OS cells (12-well plate). The next day, cells were treated with 10 µM Dox for 6 h. Migration of the different oligomeric states is indicated by T (tetramer), D (dimer), and M (monomer). […] Western blot analysis was carried out using an anti-myc antibody (4A6, Merck). Cells were pre-incubated with increasing Chk2 (BML-277, Merck) or CK1 inhibitor (PF670462, Sigma–Aldrich) concentrations (5, 25, 50 µM) for 1 h. Afterwards, 10 µM Dox was added and cells were harvested 6 h later. Migration of the different oligomeric states is indicated by T (tetramer), D (dimer), and M (monomer). Vinculin was used as loading control. Protein levels loaded on BN-PAGE were adjusted to equal p63 amounts by prior western blot analysis. SDS-PAGE to detect phosphoshifts were not input adjusted
(§3) H1299 cells were transfected using the Qiagen Effectene kit according to the manufacturer’s manual in a 12-well plate or H1299 cells stably expressing p63 isoforms were used. Cells were harvested and lysed in NP lysis buffer (20 mM Tris, 150 mM NaCl, 2 mM MgCl2, 20 mM CHAPS, 1 mM DTT, complete protease inhibitor cocktail (Roche), PhosSTOP (Roche) pH 7.4 or pH 8.0). Benzonase (Merck) was added and samples were lysed on ice for 1 h. BN-PAGE (3–12%, Thermo Fisher Scientific) was performed and blotted as previously described[17],[35]. Protein levels loaded on BN-PAGE were adjusted to equal p63 amounts by prior western blot analysis. SDS-PAGE to detect phosphoshifts were not input adjusted.
(§4) 300 ng expression vector carrying the p63 gene were transiently transfected in H1299 cells (12-well plate). The next day, cells were treated with 10 µM Dox for 6 h. Migration of the different oligomeric states is indicated by T (tetramer), D (dimer) and M (monomer). […] Stably p63 expressing H1299 were treated with 10 µM Dox for up to 10 h. Protein levels loaded on BN-PAGE were adjusted to equal p63 amounts by prior western blot analysis. SDS-PAGE to detect phosphoshifts were not input adjusted.

[2] = tested on: TA*p63α; test: BN-PAGE oligomeric state of TA*p63α upon Dox treatment; details: H1299 stably expressing; pre-incubated with inhibitor 5, 25, 50 µM for 1 h, then 10 µM Dox 6 h; BN-PAGE
Method: as §1, §2, §3, §4

[3] = tested on: GTAp63α; test: BN-PAGE oligomeric state of GTAp63α upon Dox treatment; details: H1299 stably expressing; pre-incubated with inhibitor 5, 25, 50 µM for 1 h, then 10 µM Dox 6 h; BN-PAGE
Method: as §1, §2, §3, §4

[4] = biological target: T1, p300 Taz2 domain (Homo sapiens, UniProt Q09472); test: Fluorescence anisotropy with the Taz2 domain of p300; details: 100 nM N-terminal fluorescein-labeled peptide, increasing concentration of Taz2, 22 °C, two site specific binding fit (GraphPad Prism 5)
T1 construct: The p300 Taz2 domain was expressed and purified as described before; made in house
T1 sequence (Q09472 1728-1809 limits assumed): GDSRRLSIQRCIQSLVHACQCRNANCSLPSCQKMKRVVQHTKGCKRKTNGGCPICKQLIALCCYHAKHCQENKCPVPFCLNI
Method: Fig. 5 Transactivation potential of constitutively tetrameric TA*p63 and GTAp63 isoforms and its correlation with p300 Taz2 domain interaction. a TA assay of C-terminal TA*p63 and GTAp63 isoforms in comparison to TAp63 C-terminal isoforms on the p21 promotor. p53 wt was used as positive, the p53 R175H mutant as negative control. Hundred nanogram of each plasmid (pcDNA3, pGL3 and pRL-CMV) were transiently transfected in Saos-2 cells (12-well plate). Cells were harvested 24 h after transfection and assay was performed. b, c TA titration assay of TA*p63γ and GTAp63γ compared to TAp63γ on the p21 promotor. […] Protein levels were determined via western blotting. […] GAPDH was used as loading control. p63 isoforms were detected with the p63 antibody ab124762 (Abcam) for sensitivity reasons. e TA assay of FWL and potential new TA motif mutants to alanine in the N-terminus of the TA*/GTAp63 isoforms (TA*p63: Y18* F22*, W31* Y35*; GTAp63:.W9′ F12′ V15′, W29′ Y33′) on the p21 promotor. p53 wt was used as positive control, the p53 R175H mutant as negative control. […] Bars represent the mean value of the biological triplicate, error bars represent SD, crosses represent mean value of the technical replicates. f Fluorescence anisotropy experiment with the Taz2 domain of p300 and either N-terminal fluorescein-tagged TA*-GTA*- (1*-39*) or GTA-GTA*- (1′-37′) peptide. […]

[5] = biological target: GTAp63α (not stated (isoform of humans and great apes)); test: native gel or EMSA; Blue-Native PAGE of lysates of transiently transfected U2OS or H1299 cells treated with 10 µM doxorubicin for 6 h; western blot with anti-myc
[6] = biological target: GTAp63α (not stated (isoform of humans and great apes)); test: as above; remark: listed apart in the source
[7] = biological target: GTAp63α (not stated (isoform of humans and great apes)); test: native gel or EMSA; Blue-Native PAGE (3-12%) of lysates of transiently transfected H1299 cells, untreated, harvested 24 h after transfection; western blot with anti-myc
[8] = biological target: GTAp63α FWL (not stated (isoform of humans and great apes)); test: SEC; in vitro translated protein in rabbit reticulocyte lysate on Superose 6 3.2/300, 50 mM sodium phosphate pH 7.8, 100 mM NaCl, 4 °C; fractions analysed by western blot
[9] = biological target: TAp63α; test: native gel or EMSA; Blue-Native PAGE of lysates of transiently transfected U2OS or H1299 cells treated with 10 µM doxorubicin for 6 h; western blot with anti-myc
[10] = biological target: TAp63α; test: native gel or EMSA; Blue-Native PAGE (3-12%) of lysates of transiently transfected H1299 cells, untreated, harvested 24 h after transfection; western blot with anti-myc
[11] = biological target: the molecule itself; test: native gel or EMSA; Blue-Native PAGE of lysates of transiently transfected U2OS or H1299 cells treated with 10 µM doxorubicin for 6 h; western blot with anti-myc
[12] = biological target: the molecule itself; test: native gel or EMSA; Blue-Native PAGE (3-12%) of lysates of transiently transfected H1299 cells, untreated, harvested 24 h after transfection; western blot with anti-myc

Molecule: NC(=O)c1ccc2nc(-c3ccc(Oc4ccc(Cl)cc4)cc3)[nH]c2c1 [BML-277]
prevention of Dox-induced tetramerization, TAp63α [1]: Tetramerization can also be prevented
prevention of Dox-induced tetramerization, TA*p63α [2]: Tetramerization can also be prevented
prevention of Dox-induced tetramerization, GTAp63α [3]: Tetramerization can also be prevented

Kd [4]: 4.79 ± 0.24 µM
Molecule: CSCC[C@H](N)C(=O)N[C@@H](CCCCN)C(=O)N[C@@H](CS)C(=O)N[C@@H](Cc1c[nH]c2ccccc12)C(=O)N[C@@H](CCC(=O)O)C(=O)N[C@@H](CCC(N)=O)C(=O)N[C@@H](CCCNC(=N)N)C(=O)N[C@@H](CC(=O)O)C(=O)N[C@@H](Cc1c[nH]c2ccccc12)C(=O)N[C@H](C(=O)N[C@@H](C)C(=O)N[C@@H](Cc1ccccc1)C(=O)N[C@H](C(=O)N[C@@H](CCCCN)C(=O)N[C@H](C(=O)NCC(=O)N[C@@H](CCCCN)C(=O)N1CCC[C@H]1C(=O)N[C@@H](CS)C(=O)N[C@@H](Cc1ccccc1)C(=O)N[C@H](C(=O)N[C@@H](CCC(=O)O)C(=O)N[C@H](C(=O)N1CCC[C@H]1C(=O)N[C@@H](C)C(=O)N[C@@H](Cc1c[nH]cn1)C(=O)N[C@@H](Cc1ccccc1)C(=O)N[C@@H](CO)C(=O)N[C@@H](Cc1c[nH]c2ccccc12)C(=O)N[C@@H](CCCCN)C(=O)N[C@@H](CCC(=O)O)C(=O)N[C@@H](CO)C(=O)N[C@@H](Cc1ccc(O)cc1)C(=O)N[C@@H](Cc1ccc(O)cc1)C(=O)N[C@@H](CCCNC(=N)N)C(=O)N[C@@H](CO)C(=O)N[C@H](C(=O)O)[C@@H](C)O)[C@@H](C)O)C(C)C)C(C)C)[C@@H](C)O)[C@@H](C)O [GTA-GTA*] (H-MKCWEQRDWTAFTKVGKPCFVETPAHFSWKESYYRST-OH)

Molecule: Nc1nccc(-c2c(-c3ccc(F)cc3)ncn2C2CCCCC2)n1 [PF670462]
prevention of Dox-induced tetramerization, TAp63α [1]: Tetramerization can also be prevented
prevention of Dox-induced tetramerization, TA*p63α [2]: Tetramerization can also be prevented
prevention of Dox-induced tetramerization, GTAp63α [3]: Tetramerization can also be prevented

Kd [4]: 13.2 ± 0.93 µM
Molecule: CC[C@H](C)[C@H](NC(=O)[C@H](Cc1ccc(O)cc1)NC(=O)[C@@H]1CCCN1C(=O)[C@H](CC(=O)O)NC(=O)[C@@H]1CCCN1C(=O)[C@H](CS)NC(=O)[C@H](Cc1ccc(O)cc1)NC(=O)[C@H](CCC(N)=O)NC(=O)[C@H](CC(C)C)NC(=O)[C@@H](NC(=O)[C@H](C)NC(=O)[C@H](CS)NC(=O)[C@H](CCCNC(=N)N)NC(=O)[C@H](CO)NC(=O)[C@@H](NC(=O)[C@H](CCC(=O)O)NC(=O)[C@H](Cc1ccccc1)NC(=O)[C@H](CC(N)=O)NC(=O)[C@@H](N)CCSC)[C@@H](C)O)[C@@H](C)O)C(=O)N[C@@H](CCC(N)=O)C(=O)N[C@@H](CCCNC(=N)N)C(=O)N[C@@H](Cc1ccccc1)C(=O)N[C@H](C(=O)N[C@@H](CCC(=O)O)C(=O)N[C@H](C(=O)N1CCC[C@H]1C(=O)N[C@@H](C)C(=O)N[C@@H](Cc1c[nH]cn1)C(=O)N[C@@H](Cc1ccccc1)C(=O)N[C@@H](CO)C(=O)N[C@@H](Cc1c[nH]c2ccccc12)C(=O)N[C@@H](CCCCN)C(=O)N[C@@H](CCC(=O)O)C(=O)N[C@@H](CO)C(=O)N[C@@H](Cc1ccc(O)cc1)C(=O)N[C@@H](Cc1ccc(O)cc1)C(=O)N[C@@H](CCCNC(=N)N)C(=O)N[C@@H](CO)C(=O)N[C@H](C(=O)O)[C@@H](C)O)[C@@H](C)O)C(C)C [TA*-GTA*] (H-MNFETSRCATLQYCPDPYIQRFVETPAHFSWKESYYRST-OH)

stoichiometry N [5]: 4
stoichiometry N [6]: 2
stoichiometry N [7]: 2
Molecule: GTAp63α (natural protein)

stoichiometry N [8]: 2
Molecule: GTAp63α FWL (natural protein)

stoichiometry N [9]: 4
stoichiometry N [10]: 2
Molecule: TAp63α (natural protein)

B1: TA*p63α (natural protein, UniProt Q9H3D4-1 1-680, looked up)
chain: MNFETSRCATLQYCPDPYIQRFVETPAHFSWKESYYRSTMSQSTQTNEFLSPEVFQHIWDFLEQPICSVQPIDLNFVDEPSEDGATNKIEISMDCIRMQDSDLSDPMWPQYTNLGLLNSMDQQIQNGSSSTSPYNTDHAQNSVTAPSPYAQPSSTFDALSPSPAIPSNTDYPGPHSFDVSFQQSSTAKSATWTYSTELKKLYCQIAKTCPIQIKVMTPPPQGAVIRAMPVYKKAEHVTEVVKRCPNHELSREFNEGQIAPPSHLIRVEGNSHAQYVEDPITGRQSVLVPYEPPQVGTEFTTVLYNFMCNSSCVGGMNRRPILIIVTLETRDGQVLGRRCFEARICACPGRDRKADEDSIRKQQVSDSTKNGDGTKRPFRQNTHGIQMTSIKKRRSPDDELLYLPVRGRETYEMLLKIKESLELMQYLPQHTIETYRQQQQQQHQHLLQKQTSIQSPSSYGNSSPPLNKMNSMNKLPSVSQLINPQQRNALTPTTIPDGMGANIPMMGTHMPMAGDMNGLSPTQALPPPLSMPSTSHCTPPPPYPTDCSIVSFLARLGCSSCLDYFTTQGLTTIYQIEHYSMDDLASLKIPEQFRHAIWKGILDHRQLHEFSSPSHLLRTPSSASTVSVGSSETRGERVIDAVRFTLRQTISFPPRDEWNDFNFDMDARRNKQQRIKEEGE
notes: TA*p63α: another translation start site adds 39 aa N-terminally to TAp63α; phosphorylated after doxorubicin (phosphoshift on SDS-PAGE); also called myc-tagged TA*p63α wt; source: U2OS, transiently transfected, in lysate; not shown: myc, N-terminal, kept
stoichiometry N [11]: 4 and 2

B2: TA*p63α (natural protein, UniProt Q9H3D4-1 1-680, looked up)
chain: B1 chain
notes: TA*p63α: another translation start site adds 39 aa N-terminally to TAp63α; also called myc-tagged TA*p63α; source: H1299, transiently transfected (pcDNA3), in lysate; not shown: myc, N-terminal, kept
stoichiometry N [11]: 4
stoichiometry N [12]: 2
